The results in this text go back to article PMC8461307 (2021).

This assay concerns the target purified C3b (UniProt P01024 23-667; P01024 749-1663). Kind of assay: SPR.

Chain of purified C3b (P01024 23-667, chain 1 of 2): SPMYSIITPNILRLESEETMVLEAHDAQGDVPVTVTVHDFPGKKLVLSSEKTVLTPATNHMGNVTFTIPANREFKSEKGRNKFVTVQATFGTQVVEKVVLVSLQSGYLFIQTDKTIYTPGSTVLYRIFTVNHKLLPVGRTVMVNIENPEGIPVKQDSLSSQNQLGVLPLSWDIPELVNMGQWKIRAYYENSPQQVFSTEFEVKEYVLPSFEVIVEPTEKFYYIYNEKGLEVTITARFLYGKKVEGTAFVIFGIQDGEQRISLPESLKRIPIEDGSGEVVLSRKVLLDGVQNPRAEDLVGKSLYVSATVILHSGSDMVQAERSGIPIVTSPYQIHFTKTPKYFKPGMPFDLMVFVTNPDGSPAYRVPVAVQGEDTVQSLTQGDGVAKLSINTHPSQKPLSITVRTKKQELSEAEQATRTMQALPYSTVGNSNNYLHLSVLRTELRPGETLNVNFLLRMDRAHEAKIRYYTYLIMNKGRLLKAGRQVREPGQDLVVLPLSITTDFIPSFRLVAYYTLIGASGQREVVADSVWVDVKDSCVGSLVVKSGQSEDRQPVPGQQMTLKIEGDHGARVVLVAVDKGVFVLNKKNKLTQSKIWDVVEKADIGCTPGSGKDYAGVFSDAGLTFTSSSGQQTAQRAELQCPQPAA
Chain of purified C3b (P01024 749-1663, chain 2 of 2): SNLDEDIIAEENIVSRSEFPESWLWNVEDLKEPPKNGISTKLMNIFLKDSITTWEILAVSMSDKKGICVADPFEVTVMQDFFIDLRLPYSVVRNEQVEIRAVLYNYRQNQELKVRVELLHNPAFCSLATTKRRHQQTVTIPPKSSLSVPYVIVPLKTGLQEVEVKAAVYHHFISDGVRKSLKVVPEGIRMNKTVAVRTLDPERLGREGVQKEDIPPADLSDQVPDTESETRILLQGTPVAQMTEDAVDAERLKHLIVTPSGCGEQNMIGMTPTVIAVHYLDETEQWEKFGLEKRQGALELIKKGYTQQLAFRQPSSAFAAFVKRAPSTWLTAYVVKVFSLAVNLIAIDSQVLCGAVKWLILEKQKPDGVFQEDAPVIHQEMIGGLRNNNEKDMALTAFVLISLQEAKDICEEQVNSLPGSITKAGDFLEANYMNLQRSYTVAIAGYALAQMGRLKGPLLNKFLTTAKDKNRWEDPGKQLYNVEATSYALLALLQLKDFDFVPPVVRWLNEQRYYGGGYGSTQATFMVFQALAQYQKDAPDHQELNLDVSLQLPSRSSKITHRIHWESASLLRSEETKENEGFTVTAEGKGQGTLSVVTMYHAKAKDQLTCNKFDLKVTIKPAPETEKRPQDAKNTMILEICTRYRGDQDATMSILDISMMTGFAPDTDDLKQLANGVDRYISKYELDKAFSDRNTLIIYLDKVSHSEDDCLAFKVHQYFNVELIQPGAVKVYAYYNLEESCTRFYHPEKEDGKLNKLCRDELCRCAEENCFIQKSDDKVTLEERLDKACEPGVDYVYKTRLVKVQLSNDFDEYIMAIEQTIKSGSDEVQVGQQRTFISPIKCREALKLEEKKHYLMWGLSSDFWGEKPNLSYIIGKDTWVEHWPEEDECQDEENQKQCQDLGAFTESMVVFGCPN

B1: recombinant wild-type Factor H-related protein 5 (FHR-5WT) (natural protein)
chain: EGTLCDFPKIHHGFLYDEEDYNPFSQVPTGEVFYYSCEYNFVSPSKSFWTRITCTEEGWSPTPKCLRMCSFPFVKNGHSESSGLIHLEGDTVQIICNTGYSLQNNEKNISCVERGWSTPPICSFTKGECHVPILEANVDAQPKKESYKVGDVLKFSCRKNLIRVGSDSVQCYQFGWSPNFPTCKGQVRSCGPPPQLSNGEVKEIRKEEYGHNEVVEYDCNPNFIINGPKKIQCVDGEWTTLPTCVEQVKTCGYIPELEYGYVQPSVPPYQHGVSVEVNCRNEYAMIGNNMITCINGIWTELPMCVATHQLKRCKIAGVNIKTLLKLSGKEFNHNSRIRYRCSDIFRYRHSVCINGKWNPEVDCTEKREQFCPPPPQIPNAQNMTTTVNYQDGEKVAVLCKENYLLPEAKEIVCKDGRWQSLPRCVESTAYCGPPPSINNGDTTSFPLSVYPPGSTVTYRCQSFYKLQGSVTVTCRNKQWSEPPRCLDPCVVSEENMNKNNIQLKWRNDGKLYAKTGDAVEFQCKFPHKAMISSPPFRAICQEGKFEYPICE
One may read the koff as a measure of how fast the partners let go of each other. Low readings indicate slow dissociation, high ones fast dissociation. Turning to B1, the dissociation rate constant (koff) was determined as 0.141 s⁻¹.
